In data set [1] the target is T1, DKK1 (Dickkopf-1), full-length (Homo sapiens, UniProt O94907 SEQ:32-266).
T1 sequence: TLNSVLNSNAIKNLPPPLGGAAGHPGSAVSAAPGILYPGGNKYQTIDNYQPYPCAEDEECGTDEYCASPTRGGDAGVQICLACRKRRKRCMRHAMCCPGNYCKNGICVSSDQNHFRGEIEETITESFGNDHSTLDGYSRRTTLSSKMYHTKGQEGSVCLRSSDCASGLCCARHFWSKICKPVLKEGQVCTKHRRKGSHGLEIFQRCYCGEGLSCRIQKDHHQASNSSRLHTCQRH
Briefly: ELONA; 1 nM: no or slight difference from aptdkk5. The following applies: tags: His6; label: biotin. Here is the method:
(§1) Enzyme linked oligonucleotide assay (ELONA): 160 ng DKK1 per well and negative target were coated in a 96-well microtiter plate by incubating at 4° C. overnight through hydrophobic interaction. Non-binding sites in wells were blocked with bull serum albumin (BSA) at room temperature for 1 hour, and then washed with DNA-binding buffer 4 times for 5 minutes each. The biotinylated aptamer candidates/RS with an appropriate concentration were added to each well and incubated at room temperature for 45 minutes with continuous gentle shaking. After binding, the plate was washed with washing buffer 4 times for 5 minutes each to remove non-specific and weakly binding sequences. 100 μl streptavidin-horseradish peroxidase (HRP) (1:10000 dilute into PBST+0.1% BSA) was added to each well, and incubated for 30 minutes, and washed for 4 times with the binding buffer. 50 μl 3,3′,5,5′-tetramethylbenzidine (TMB) as a HRP substrate was added to each well and incubated for 20 minutes. 50 μl 2M H₂SO₄ was added to terminate the reaction. The absorbance at 450 nm was measured with a microplate reader (Molecular Device i3x). Data was analyzed with Origin software. A binding curve was generated and KD was calculated with a non-linear curve fitting model logistic.
The specificity of 100 nM/i nM of each aptamer/RS against DKK-1 was determined for 24 truncated sequences of aptdkk5 and original aptdkk5 (Table 6) by ELONA and the absorbance at 450 nm was detected. When the concentration was 100 nM, there was no significant difference or slight difference in the absorbance between apt5-1-38, apt5-1-35, apt5-1-62, or apt5-1-59 and the original aptdkk5 (FIG. 8a). When the concentration was 1 nM, there was no significant difference or slight difference in the absorbance between apt5-1-50, apt5-1-47, apt5-1-44, apt5-1-41, apt5-1-38, apt5-1-35, apt5-1-65, apt5-1-62, apt5-1-59, or apt5-1-53 and the original aptdkk5 (FIG. 8b). After the specificity and length of these aptamers were considered, apt5-1-44, apt5-1-41, apt5-1-38, and apt5-1-35 were selected to determine the binding affinity against DKK1.

The target in data set [2] is T1, DKK1 (Dickkopf-1), full-length. As to the kind of experiment: ELONA; 100 nM and 1 nM: no or slight difference from aptdkk5. Particulars: tags: His6; label: biotin. Here is the method: as §1, with “100 μl streptavidin-horseradish peroxidase (HRP) (1:10000 dilute into PBST+0.1% BSA) was added to each well, and incubated for 30 minutes, and washed for 4 times with the binding buffer. 50 μl 3,3′,5,5′-tetramethylbenzidine (TMB) as a HRP substrate was added to each well and incubated for 20 minutes. 50 μl 2M H₂SO₄ was added to terminate the reaction.” left out
The specificity of 100 nM/i nM of each aptamer/RS against DKK-1 was determined for 24 truncated sequences of aptdkk5 and original aptdkk5 (Table 6) by ELONA and the absorbance at 450 nm was detected. When the concentration was 100 nM, there was no significant difference or slight difference in the absorbance between apt5-1-38, apt5-1-35, apt5-1-62, or apt5-1-59 and the original aptdkk5 (FIG. 8a). […]

Data set [3] shares this target. Briefly: ELONA; high affinity; Kd only in FIG. 9. The following applies: tags: His6; label: biotin. Here is the method:
as §1
Aptamer candidates with significant specificity (apt5-1-44, apt5-1-41, apt5-1-38, and apt5-1-35) and the original aptdkk5 as a positive control were used to determine the binding affinity against DKK1. The original aptdkk5 and apt5-1-44 had concentrations of (0.15625 nM, 0.625 nM, 1.25 nM, 2.5 nM, 5 nM, 10 nM, 50 nM, and 100 nM), apt5-1-41, apt5-1-38, and apt5-1-35 had concentrations of (0, 1.5625 nM, 3.125 nM, 6.25 nM, 12.5 nM, 25 nM, and 50 nM).

The target is the same in data set [4]. As to the kind of experiment: ELONA; not significantly above blank at 1 uM; used as negative control. Particulars: tags: His6; label: biotin. Here is the method: as §1, with “50 μl 2M H₂SO₄ was added to terminate the reaction.” left out
The specificity of 1 μM of each adapter/RS against DKK-1 was determined for 20 potential sequences with the highest occurrence rate (Table 4) by ELONA and the absorbance at 450 nm was detected.

Data set [5] shares this target. As to the kind of experiment: ELONA; room temperature. Particulars: tags: His6; label: biotin; G-rich, predicted G4. Here is the method: as §1
Aptamer candidates with significant specificity and Candidate 3 as a negative control were used to determine the binding affinity against DKK1. Candidates 1, 2, 4, and 14 had concentrations of (0, 62.5 nM, 125 nM, 250 nM, 500 nM, 1000 nM, 2000 nM, and 4000 nM), Candidates 7, 10, 15, and 16 had concentrations of (0, 23.44 nM, 46.86 nM, 93.75 nM, 187.5 nM, 375 nM, 750 nM, and 1500 nM), and other candidates had concentrations of (0, 0.18 nM, 0.74 nM, 2.96 nM, 11.84 nM, 47.35 nM, 189.39 nM, and 757.58 nM). […] Six candidates (aptdkk-5, 13, 20, 19, 6, and 1) were rich in G. The other five sequences (aptdkk-9, 18, 12, 17, and 8) were not rich in G.

The target of data set [6] is T2, DKK1 expressed in Wnt reporter cells (UniProt O94907 SEQ:32-266).
T2 sequence: T1 sequence
As to the kind of experiment: cell_activity; TOPFlash Wnt3a luciferase in HEK293T. The following applies: tags: DKK1 construct co-transfected in HEK293T. Here is the method: TCF-wnt induced luciferase activity assay: HEK293T cells were co-transfected with corresponding plasmids, including TOPFlash, FOPFlash, Wnt3a, and DKK1 constructs. An equal amount of the carrier was used for each time of transfection. The culture medium was replaced 24 hours after the transfection. The cells were treated with conditional culture medium containing 1 μM corresponding aptamer candidates. In order to determine inhibition effect, the cells are treated with aptamer candidates having gradient concentrations. 24 hours after treatment, the cells were lysed with 100 μl of lysis buffer, and 20 μl was taken for analysis. It was calculated according to the protocol (dual luciferase reporter gene assay, Promega).

In data set [7] the target is T1, DKK1 (Dickkopf-1), full-length. As to the kind of experiment: ELONA; highest affinity of the four truncations; Kd only in FIG. 9. Particulars: tags: His6; label: biotin. Here is the method: as §1, with “logistic. […]” for “logistic.”
Where [8] appears, read: label: biotin, G-rich, predicted G4.

The text below walks through data of patent publication US20240401063, “Aptamer for DKK1 and Use Thereof” (APTACURE THERAPEUTICS LIMITED, published 2024).

One may read the Kd as the constant that tells how readily two partners part at equilibrium. For orientation: IC50 means the midpoint of a concentration-inhibition curve.

On to CGTACGGTCGACGCTAGCTGGTGGTTGGGGTGGGTGGTGGTTGTTCGTGG (ssDNA) [Apt5-1-50], for which the binding result in data set [1] was “binds”.

B1: Apt5-1-59 (ssDNA)
DNA: CGTACGGTCGACGCTAGCTGGTGGTTGGGGTGGGTGGTGGTTGTTCGTGGCCGCGTACG
Turning to B1, in data set [2], the binding result was “binds”.

B2: Apt5-1-62 (ssDNA)
DNA: CGTACGGTCGACGCTAGCTGGTGGTTGGGGTGGGTGGTGGTTGTTCGTGGCCGCGTACGGTC
Consider B2, for which the binding result in data set [2] is on record as “binds”.

CGTACGGTCGACGCTAGCTGGTGGTTGGGGTGGGTGGTGGTTGT (ssDNA) [Apt5-1-44]: the binding result in data set [3] is reported as “binds”.

B3: Apt5-1-65 (ssDNA)
DNA: CGTACGGTCGACGCTAGCTGGTGGTTGGGGTGGGTGGTGGTTGTTCGTGGCCGCGTACGGTCGAC
For the molecule B3, the binding result in data set [1] was “binds”.

B4: Aptdkk-3 (ssDNA)
DNA: CGTACGGTCGACGCTAGCTAACTGTCCGACGCGTCTTTCACTTTCTCCCGCCGGGATCCGAGCTCCACGTG
As for B4, in data set [4], the binding result is “no binding”.

For the molecule CGTACGGTCGACGCTAGCTGGTGGTTGGGGTGGGT (ssDNA) [Apt5-1-35], the binding result in data set [3] is listed as “binds”.

B5: Aptdkk-20 (ssDNA)
DNA: CGTACGGTCGACGCTAGCCGTAGGGAGGTGGGTGGGTATTTCTCTCTGTCGTGGGATCCGAGCTCCACGTG
For B5, the Kd in data set [5] is 6.6 nM. For the same molecule, in data set [6] (setting [8]), the IC50 is 1500 nM.

B6: Aptdkk-5 (ssDNA)
DNA: CGTACGGTCGACGCTAGCTGGTGGTTGGGGTGGGTGGTGGTTGTTCGTGGCCGGGATCCGAGCTCCACGTG
Consider B6, for which the Kd in data set [5] was 0.3 nM. The IC50 in data set [6] (setting [8]) is 754 nM.

As to CGTACGGTCGACGCTAGCTGGTGGTTGGGGTGGGTGGT (ssDNA) [Apt5-1-38 (Aptdkk5s)], the binding result in data set [7] is on record as “binds”.

Molecule CGTACGGTCGACGCTAGCTGGTGGTTGGGGTGGGTGGT (ssDNA, O-methyl (positions not stated); 3' inverted dT) [dkk5s-OM-indT] showed an IC50 in data set [6] of 383 nM.

B7: Apt5-1-53 (ssDNA)
DNA: CGTACGGTCGACGCTAGCTGGTGGTTGGGGTGGGTGGTGGTTGTTCGTGGCCG
B7: in data set [1], the binding result was “binds”.

Turning to CGTACGGTCGACGCTAGCTGGTGGTTGGGGTGGGTGGTGGTTGTTCG (ssDNA) [Apt5-1-47], in data set [1], the binding result is recorded as “binds”.

For CGTACGGTCGACGCTAGCTGGTGGTTGGGGTGGGTGGTGGT (ssDNA) [Apt5-1-41], in data set [3], the binding result is “binds”.
